Reference: patent CN116425870A (UNIV SHAANXI NORMAL, dated 2023)

Target: T1, SARS-COV-2病毒N蛋白 (SARS-COV-2, UniProt P0DTC9 1-419)
T1 construct: also called 新型冠状病毒N蛋白; SARS-COV-2N蛋白
Assay: ELISA, N protein coated 100 ng/well, supernatant of transfected Expi293F cells

B1: 31A8抗体重链31A8mG1 (heavy chain transfected alone) (other)
VH: EVQLQQSGPELVKPGASVKISCKTSGYTFTKYTMHWVKQSHGKSLEWIGGINPNNGGNSYNQKFKGKATLTVDKSSSTAYMELRSLTSEDSAVYYCATPDYWGQGTTLTVSS
  binding result: no binding
